Laboratory results as given in doi:10.1101/2021.04.19.440493.

Key:
[1] = biological target: α-domain of Ag43 from UPEC UTI89 (α^43_UTI89) (E. coli O18:K1:H7 UTI89 (UPEC)); experiment: AUC
[2] = biological target: α-domain of Ag43 from UPEC UTI89 (α^43_UTI89) (E. coli O18:K1:H7 UTI89 (UPEC)); experiment: small-angle X-ray scattering
[3] = biological target: α-domain of Ag43a from UPEC CFT073 (α^43a) (E. coli CFT073 (UPEC)); experiment: AUC
[4] = biological target: α-domain of Ag43a from UPEC CFT073 (α^43a) (E. coli CFT073 (UPEC)); experiment: small-angle X-ray scattering

| Substance | stoichiometry N [1] | stoichiometry N [2] | stoichiometry N [3] | stoichiometry N [4] |
| --- | --- | --- | --- | --- |
| α-domain of Ag43 from UPEC UTI89 (α^43_UTI89) (domain or fragment) | 2 | 2 |  |  |
| α-domain of Ag43a from UPEC CFT073 (α^43a) (domain or fragment) |  |  | 2 | 2 |
